{"source": "paper doi:10.1101/2022.07.14.500063", "key": {"[1]": {"target": "Delta RBD+E406D (SARS-CoV-2) (UniProt P0DTC2)"}, "[2]": {"target": "Delta RBD+L455S (SARS-CoV-2) (UniProt P0DTC2)"}, "[3]": {"target": "Delta RBD+E406Q (SARS-CoV-2) (UniProt P0DTC2)"}, "[4]": {"target": "Delta+L455F Spike on pseudotyped lentivirus (SARS-CoV-2) (UniProt P0DTC2)"}, "[5]": {"target": "Delta+Y453F Spike on pseudotyped lentivirus (SARS-CoV-2) (UniProt P0DTC2)"}, "[6]": {"target": "Delta RBD+L455S (SARS-CoV-2) (UniProt P0DTC2)", "remark": "listed apart in the source"}}, "data": [{"substance": "casirivimab (REGN10933) (antibody)", "values": [{"measurement": "fold reduction in pseudoviral neutralisation titre", "setting": "[1]", "value": 2, "unit": "fold"}, {"measurement": "fold reduction in pseudoviral neutralisation titre", "setting": "[2]", "value": 65, "unit": "fold"}, {"measurement": "fold reduction in pseudoviral neutralisation titre", "setting": "[3]", "value": 12, "unit": "fold"}, {"measurement": "fold reduction in pseudoviral neutralization titre against wild-type Delta", "setting": "[4]", "value": 17, "unit": "fold"}, {"measurement": "fold reduction in pseudoviral neutralization titre against wild-type Delta", "setting": "[5]", "value": 16, "unit": "fold"}, {"measurement": "fold reduction in pseudoviral neutralization titre against wild-type Delta", "setting": "[6]", "value": 155, "unit": "fold"}]}]}
